From US20080044360A1
Values belong to the binder of their own block, whether it stands above or below them. Bridge positions count the residues as written; N and C are the ends. Square brackets hold non-standard residues; d marks the D form. Primed or numbered codes have the meaning given here. Side chains are listed from the residue outwards. Ends that are not written are not given here. * marks the point of attachment. GdDTPA‑thiourea = GdT is GdDTPA-thiourea (Gd-DTPA chelate attached through a thiourea); Phe(3,4-(OMe)2) = COc1ccc(C[C@H](N)C(=O)O)cc1OC; dBip = N[C@H](Cc1ccc(-c2ccccc2)cc1)C(=O)O; Phe(4-CN) = N#Cc1ccc(C[C@H](N)C(=O)O)cc1; Dip = N[C@H](C(=O)O)C(c1ccccc1)c1ccccc1; Phe(4-NH2) = Nc1ccc(C[C@H](N)C(=O)O)cc1; Gd^T(3) = GdDTPA attached via thiourea; d1Nal = N[C@H](Cc1cccc2ccccc12)C(=O)O; Pen = CC(C)(S)[C@H](N)C(=O)O; Orn = NCCC[C@H](N)C(=O)O; Gd^T = not defined here; Gd^T″ = GdDTPA-thiourea; Cbz = O=C(OCc1ccccc1)*; Dap = NC[C@H](N)C(=O)O; GdT = GdDTPA-thiourea

How the values were obtained:
[1] = molecular target: rat collagen, acid soluble, type I, rat tail (Upstate 08-115) (rat) (UniProt P02454); test: dried collagen assay
Sequence of rat collagen, acid soluble, type I, rat tail (Upstate 08-115) (rat) (P02454 152-1207, chain 1 of 2): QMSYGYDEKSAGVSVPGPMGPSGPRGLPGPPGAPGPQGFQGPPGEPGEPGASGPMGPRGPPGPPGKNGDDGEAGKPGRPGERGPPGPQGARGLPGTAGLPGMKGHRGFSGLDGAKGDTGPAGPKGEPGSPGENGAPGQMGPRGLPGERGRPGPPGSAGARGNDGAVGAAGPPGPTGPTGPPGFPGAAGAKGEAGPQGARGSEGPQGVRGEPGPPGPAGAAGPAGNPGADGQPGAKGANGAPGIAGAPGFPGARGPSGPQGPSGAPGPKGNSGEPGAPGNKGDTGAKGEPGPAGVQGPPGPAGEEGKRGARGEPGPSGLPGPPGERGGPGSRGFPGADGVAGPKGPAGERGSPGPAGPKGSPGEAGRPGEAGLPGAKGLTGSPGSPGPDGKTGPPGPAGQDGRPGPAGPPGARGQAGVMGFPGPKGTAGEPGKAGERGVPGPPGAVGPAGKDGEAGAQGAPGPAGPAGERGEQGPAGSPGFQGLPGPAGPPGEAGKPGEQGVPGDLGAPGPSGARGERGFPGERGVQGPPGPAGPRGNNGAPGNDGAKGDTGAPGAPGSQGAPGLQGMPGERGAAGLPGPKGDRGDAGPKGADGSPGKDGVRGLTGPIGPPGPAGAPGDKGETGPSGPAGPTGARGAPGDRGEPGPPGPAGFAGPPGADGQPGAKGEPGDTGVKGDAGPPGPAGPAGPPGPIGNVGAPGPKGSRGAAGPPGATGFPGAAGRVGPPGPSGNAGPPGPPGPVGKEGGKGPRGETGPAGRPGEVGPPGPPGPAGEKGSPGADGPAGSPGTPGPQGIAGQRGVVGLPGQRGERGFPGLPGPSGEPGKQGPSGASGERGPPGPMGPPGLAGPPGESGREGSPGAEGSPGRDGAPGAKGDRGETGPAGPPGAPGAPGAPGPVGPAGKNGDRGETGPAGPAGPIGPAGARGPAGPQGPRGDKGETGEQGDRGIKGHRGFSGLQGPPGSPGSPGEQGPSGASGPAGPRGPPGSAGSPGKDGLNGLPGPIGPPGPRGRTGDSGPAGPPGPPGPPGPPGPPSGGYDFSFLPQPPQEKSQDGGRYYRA
Sequence of rat collagen, acid soluble, type I, rat tail (Upstate 08-115) (rat) (P02466 86-1125, chain 2 of 2, further chain): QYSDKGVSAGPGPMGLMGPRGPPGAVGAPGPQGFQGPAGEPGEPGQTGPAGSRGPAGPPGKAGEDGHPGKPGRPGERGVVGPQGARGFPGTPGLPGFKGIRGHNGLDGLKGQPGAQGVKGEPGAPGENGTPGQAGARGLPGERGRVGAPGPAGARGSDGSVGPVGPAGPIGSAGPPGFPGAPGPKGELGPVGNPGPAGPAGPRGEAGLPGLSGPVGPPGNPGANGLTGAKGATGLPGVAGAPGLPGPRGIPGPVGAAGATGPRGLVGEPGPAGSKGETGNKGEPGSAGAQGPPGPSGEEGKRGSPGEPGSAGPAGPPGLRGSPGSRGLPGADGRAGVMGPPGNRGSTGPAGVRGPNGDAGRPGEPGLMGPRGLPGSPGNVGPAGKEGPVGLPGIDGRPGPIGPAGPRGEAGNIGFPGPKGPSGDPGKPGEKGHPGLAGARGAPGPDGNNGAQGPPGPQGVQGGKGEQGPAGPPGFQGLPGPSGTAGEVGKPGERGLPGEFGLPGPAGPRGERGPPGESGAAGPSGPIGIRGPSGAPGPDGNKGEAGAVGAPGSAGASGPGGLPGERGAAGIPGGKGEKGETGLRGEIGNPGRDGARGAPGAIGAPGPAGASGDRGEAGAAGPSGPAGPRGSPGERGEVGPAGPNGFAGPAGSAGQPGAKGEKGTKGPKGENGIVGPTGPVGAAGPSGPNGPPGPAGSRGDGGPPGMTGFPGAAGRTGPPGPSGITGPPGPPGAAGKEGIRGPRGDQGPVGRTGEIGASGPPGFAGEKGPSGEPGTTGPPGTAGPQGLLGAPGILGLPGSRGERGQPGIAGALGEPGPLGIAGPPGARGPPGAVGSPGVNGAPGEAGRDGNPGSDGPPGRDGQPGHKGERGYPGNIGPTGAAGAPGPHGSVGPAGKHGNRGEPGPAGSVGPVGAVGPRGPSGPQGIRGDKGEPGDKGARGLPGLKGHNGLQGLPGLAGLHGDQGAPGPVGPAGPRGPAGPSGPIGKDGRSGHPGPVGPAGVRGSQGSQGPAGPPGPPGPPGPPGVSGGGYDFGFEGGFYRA

[2] = molecular target: human collagen type I, acid soluble, extracted from placenta (Sigma C7774) (human) (UniProt P02452); test: dried collagen assay
Sequence of human collagen type I, acid soluble, extracted from placenta (Sigma C7774) (human) (P02452 162-1218 limits assumed, chain 1 of 2): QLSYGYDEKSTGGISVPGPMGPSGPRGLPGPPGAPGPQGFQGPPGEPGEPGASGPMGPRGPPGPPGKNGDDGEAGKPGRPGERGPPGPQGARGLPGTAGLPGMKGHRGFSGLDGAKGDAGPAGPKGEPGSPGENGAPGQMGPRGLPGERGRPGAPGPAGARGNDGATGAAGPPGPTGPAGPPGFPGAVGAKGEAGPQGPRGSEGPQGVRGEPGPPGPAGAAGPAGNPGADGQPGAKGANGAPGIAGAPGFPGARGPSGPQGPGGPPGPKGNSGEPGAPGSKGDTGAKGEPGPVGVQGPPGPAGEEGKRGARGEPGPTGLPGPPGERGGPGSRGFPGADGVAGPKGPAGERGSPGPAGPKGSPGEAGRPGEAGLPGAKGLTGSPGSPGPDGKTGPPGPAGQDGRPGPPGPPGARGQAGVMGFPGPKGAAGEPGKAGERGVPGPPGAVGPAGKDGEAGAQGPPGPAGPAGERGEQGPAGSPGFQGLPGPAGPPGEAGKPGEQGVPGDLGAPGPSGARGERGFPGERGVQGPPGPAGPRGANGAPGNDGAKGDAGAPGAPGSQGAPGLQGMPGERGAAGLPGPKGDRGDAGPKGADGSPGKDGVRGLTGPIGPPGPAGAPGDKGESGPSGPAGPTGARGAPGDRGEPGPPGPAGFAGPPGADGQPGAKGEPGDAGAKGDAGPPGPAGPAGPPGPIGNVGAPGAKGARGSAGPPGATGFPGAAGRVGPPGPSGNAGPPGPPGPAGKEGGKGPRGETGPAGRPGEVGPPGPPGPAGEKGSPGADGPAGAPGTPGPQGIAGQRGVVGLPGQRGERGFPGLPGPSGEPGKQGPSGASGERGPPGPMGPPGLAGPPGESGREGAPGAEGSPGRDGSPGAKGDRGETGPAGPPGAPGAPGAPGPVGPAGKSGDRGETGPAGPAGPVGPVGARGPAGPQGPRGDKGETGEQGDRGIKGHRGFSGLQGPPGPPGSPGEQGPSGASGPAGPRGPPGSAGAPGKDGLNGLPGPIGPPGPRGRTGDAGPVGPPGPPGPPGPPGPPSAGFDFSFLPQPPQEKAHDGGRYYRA
Sequence of human collagen type I, acid soluble, extracted from placenta (Sigma C7774) (human) (P08123 80-1119 limits assumed, chain 2 of 2, further chain): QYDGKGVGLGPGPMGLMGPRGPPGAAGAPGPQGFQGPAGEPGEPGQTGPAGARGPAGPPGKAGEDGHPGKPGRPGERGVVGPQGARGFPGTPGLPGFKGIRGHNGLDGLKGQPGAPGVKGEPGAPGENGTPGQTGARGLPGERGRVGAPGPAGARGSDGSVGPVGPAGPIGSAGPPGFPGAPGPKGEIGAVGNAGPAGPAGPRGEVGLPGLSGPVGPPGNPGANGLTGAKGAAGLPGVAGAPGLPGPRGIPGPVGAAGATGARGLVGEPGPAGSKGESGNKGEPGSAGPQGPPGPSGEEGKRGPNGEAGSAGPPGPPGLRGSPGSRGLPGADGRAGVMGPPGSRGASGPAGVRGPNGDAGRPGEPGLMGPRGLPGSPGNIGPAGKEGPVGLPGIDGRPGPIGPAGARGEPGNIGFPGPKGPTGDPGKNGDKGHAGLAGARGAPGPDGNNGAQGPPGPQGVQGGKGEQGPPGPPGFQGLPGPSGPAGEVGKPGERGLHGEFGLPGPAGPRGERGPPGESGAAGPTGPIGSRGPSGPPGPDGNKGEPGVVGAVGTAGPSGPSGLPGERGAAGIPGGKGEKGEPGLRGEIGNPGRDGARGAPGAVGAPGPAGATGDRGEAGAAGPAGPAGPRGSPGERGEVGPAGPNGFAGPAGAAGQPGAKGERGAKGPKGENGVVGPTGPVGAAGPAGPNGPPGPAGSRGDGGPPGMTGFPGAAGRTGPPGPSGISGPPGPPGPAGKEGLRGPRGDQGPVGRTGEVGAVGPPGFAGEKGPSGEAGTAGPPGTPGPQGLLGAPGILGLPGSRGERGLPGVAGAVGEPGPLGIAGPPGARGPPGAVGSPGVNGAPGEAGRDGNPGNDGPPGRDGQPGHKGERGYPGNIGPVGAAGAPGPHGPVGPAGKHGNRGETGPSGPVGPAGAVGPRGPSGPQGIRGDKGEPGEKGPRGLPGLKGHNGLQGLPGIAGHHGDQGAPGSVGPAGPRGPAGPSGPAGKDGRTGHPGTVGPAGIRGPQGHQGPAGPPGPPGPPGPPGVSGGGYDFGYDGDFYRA

% bound [1]: 4%
B1: Compound ID 967 (peptide)
peptide: {Gd^T″}-GK([Gly-Gd^T″])WHCTTYFPHHYCL[Dip]G
modifications: disulfide 5-14 (inferred); not fully specified

% bound [2]: 2%
% bound [1]: 2%
B2: Compound ID 901 (peptide)
peptide: {Gd^T″}-GQWHCTTRFPHH[dF]CLYG
modifications: disulfide 5-14 (inferred); not fully specified (C-terminus)

% bound [1]: 4%
B3: Compound ID 833 (peptide)
peptide: {Gd^T″}-GQWTCSGDEYTWACNYE
modifications: disulfide 5-14 (inferred); not fully specified (C-terminus)

% bound [2]: 37%
% bound [1]: 53%
B4: SEQ ID NO 163 (peptide)
peptide: [dY][dH][dA][dC][dY][dQ][dA]G[dC][dW][dI][dW]
modifications: disulfide 4-9 (inferred); not fully specified (C-terminus)

% bound [2]: 2%
% bound [1]: 2%
B5: SEQ ID NO 175 (peptide)
peptide: QWTCSGDEYTWH[dC]NYE
modifications: disulfide 4-13 (inferred); not fully specified (N-terminus); printed as QWTCSGDEYTWHcNYE

% bound [1]: 8%
B6: Compound ID 966 (peptide)
peptide: {Gd^T″}-GK([Gly-Gd^T″])WHCTTLFPHHVCLYG
modifications: disulfide 5-14 (inferred)

% bound [1]: 8%
B7: Compound ID 940 (peptide)
peptide: Cbz-GQWHCTK(Gd^T″)RFPHHYCLYG
modifications: disulfide 5-14 (inferred)

% bound [2]: 6%
% bound [1]: 1%
B8: Compound ID 907 (peptide)
peptide: {Gd^T″}-GQWHCTTLFPHH[dY]CLYG
modifications: disulfide 5-14 (inferred); not fully specified (C-terminus)

% bound [2]: 8%
% bound [1]: 5%
B9: Compound ID 941 (peptide)
peptide: Cbz-GQWHCT[Orn](GdDTPA‑thiourea)RFPHHYCLYG
modifications: disulfide 5-14 (inferred); also: gadolinium complex (GdDTPA)

% bound [1]: 8%
B10: Compound ID 836 (peptide)
peptide: {Gd^T″}-DWTCS[dS]DEYTWHCNYE
modifications: disulfide 4-13 (inferred); not fully specified (C-terminus)

% bound [1]: 5%
B11: Compound ID 936 (peptide)
peptide: {Gd^T″}-GQWHCTDRFPHHYCLYG
modifications: disulfide 5-14 (inferred)

% bound [2]: 5%
% bound [1]: 4%
B12: SEQ ID NO 173 (peptide)
peptide: QWTCSGDEYT[dW]HCNYE
modifications: disulfide 4-13 (inferred); not fully specified (N-terminus); printed as QWTCSGDEYTwHCNYE

% bound [2]: 8%
% bound [1]: 9%
B13: Compound ID 878 (peptide)
peptide: {Gd^T″}-GQWHCTTRFPHAYCLYG
modifications: disulfide 5-14 (inferred)

% bound [1]: 3%
B14: Compound ID 840 (peptide)
peptide: {Gd^T}-GQWACSGDEYTWHCNYE
modifications: disulfide 5-14 (inferred); not fully specified (C-terminus); reading uncertain

% bound [2]: 8%
% bound [1]: 2%
B15: Compound ID 883 (peptide)
peptide: {Gd^T″}-GQWHCTTD[Phe(4-CN)]PHHYCLYG
modifications: disulfide 5-14 (inferred)

% bound [2]: 4%
% bound [1]: 5%
B16: SEQ ID NO 133 (peptide)
peptide: YHACAQAGCWIW
modifications: disulfide 4-9 (inferred)

% bound [1]: 9%
B17: Compound ID 885 (peptide)
peptide: {Gd^T″}-GQWHCTTD[Phe(4-NH2)](Gd^T″)PHHYCLYG
modifications: disulfide 5-14 (inferred)

% bound [1]: 7%
B18: Compound ID 847 (peptide)
peptide: {Gd^T}-DWTCS[dL]DEYTWHCNYE
modifications: disulfide 4-13 (inferred); not fully specified (C-terminus); reading uncertain

% bound [2]: 2%
% bound [1]: 2%
B19: SEQ ID NO 176 (peptide)
peptide: QWTCSGDEYTWHC[dN]YE
modifications: disulfide 4-13 (inferred); not fully specified (N-terminus); printed as QWTCSGDEYTWHCnYE

% bound [2]: 4%
% bound [1]: 7%
B20: SEQ ID NO 137 (peptide)
peptide: YHACYQAGCWAW
modifications: disulfide 4-9 (inferred)

% bound [1]: 5%
B21: Compound ID 906 (peptide)
peptide: {Gd^T(3)}-GQWHCTTRFPHHY[Pen]LYG
modifications: disulfide 5-14; not fully specified (C-terminus)

% bound [2]: 4%
% bound [1]: 2%
B22: Compound ID 893 (peptide)
peptide: {Gd^T″}-GQWHCTTD[Phe(3,4-(OMe)2)]PHHYCLYG
modifications: disulfide 5-14 (inferred)

% bound [1]: 3%
B23: Compound ID 904 (peptide)
peptide: {Gd^T(3)}-GQWHCTTRFPHH[d1Nal]CLYG
modifications: disulfide 5-14; not fully specified (C-terminus)

% bound [2]: 3%
% bound [1]: 5%
B24: Compound ID 903 (peptide)
peptide: GdT-GQWHCTTRFPHH[dBip]CLYG
modifications: disulfide 5-14 (inferred); not fully specified (C-terminus); also: gadolinium complex (GdDTPA)

% bound [2]: 2%
% bound [1]: 3%
B25: SEQ ID NO 166 (peptide)
peptide: QW[dT]CSGDEYTWHCNYE
modifications: disulfide 4-13 (inferred); not fully specified (N-terminus, C-terminus); printed as QWtCSGDEYTWHCNYE

% bound [2]: 2%
% bound [1]: 4%
B26: SEQ ID NO 165 (peptide)
peptide: Q[dW]TCSGDEYTWHCNYE
modifications: disulfide 4-13 (inferred); not fully specified (N-terminus, C-terminus); printed as QwTCSGDEYTWHCNYE

% bound [2]: 3%
% bound [1]: 2%
B27: SEQ ID NO 168 (peptide)
peptide: QWTC[dS]GDEYTWHCNYE
modifications: disulfide 4-13 (inferred); not fully specified (N-terminus); printed as QWTCsGDEYTWHCNYE

% bound [2]: 4%
% bound [1]: 5%
B28: Compound ID 939 (peptide)
peptide: Cbz-GQWHCT[Dap](GdDTPA‑thiourea)RFPHHYCLYG
modifications: disulfide 5-14 (inferred); also: gadolinium complex (GdDTPA)
